Data as given in PMC2171531.

Biological target: GST-syntaxin-1 (UniProt P32851)
Test: pull-down

GST-syntaxin-1, sequence (P32851 1-265): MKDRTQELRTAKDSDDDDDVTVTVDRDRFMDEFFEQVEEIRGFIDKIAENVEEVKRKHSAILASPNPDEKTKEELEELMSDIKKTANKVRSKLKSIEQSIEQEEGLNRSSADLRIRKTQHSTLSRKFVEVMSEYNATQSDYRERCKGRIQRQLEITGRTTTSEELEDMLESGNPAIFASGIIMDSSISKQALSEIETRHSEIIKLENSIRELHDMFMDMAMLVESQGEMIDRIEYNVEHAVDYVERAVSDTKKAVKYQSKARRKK

Substance | Kd [nM] | percent of the total input bound [%] | amount bound in comparison with MBP-tomosyn [%]
MBP-tomosyn phosphorylated by PKA (natural protein) | 330 | 20 | –
MBP-tomosyn (nonphosphorylated form) (natural protein) | 60 | 60 | –
MBP-tomosyn-S724D (natural protein) | – | – | 35
